Reference: paper PMC4193804

What was measured:
[1] = target: Hy.1B11 TCR with biotinylated C-terminal BirA tag (human); assay: SPR
[2] = target: HLA-DQ1 (DQA1*0102, DQB1*0502) loaded with the myelin basic protein peptide (res. 85–99) (human); assay: SPR
[3] = target: HLA-DQ1 (DQA1*0102, DQB1*0502), supplied as DQ1/CLIP for peptide-binding assays (human); assay: ELISA

Row | Substance | Kd [1] | other results
1 | HLA-DQ1 (DQA1*0102, DQB1*0502) loaded with the Pseudomonas aeruginosa phosphomannomutase peptide PMM 260–274 (from UniProt P26276 260-274) (peptide-MHC) | 57.3 µM | –
2 | HLA-DQ1 (DQA1*0102, DQB1*0502) loaded with the myelin basic protein peptide (res. 85–99) (peptide-MHC) | 6.96 µM | –
3 | Hy.1B11 T cell receptor (TCR), wild type, soluble | – | Kd [2]: 14.3 µM
4 | MBP 85–99 analogue peptide with P6 Asn to Asp substitution | – | fold higher affinity than the WT MBP peptide [3]: 10 fold
